{
  "source": "the DeepSol protein solubility set",
  "data": [
    {"experiment": "soluble on expression in E. coli; label from the status in PepcDB or PDB records", "values": [
      {"sequence": "MGGLVSRCEAFSSSAEQKLSQGRNTSMDEKTTQTKPSRRPWFWKRIERTELPNPGSYEDINQEASAVLRPNLFDGFRFDFNYPLSAMFSMGHSIEMGSLQKPPGYAFSANYLSNHLVMLSRVDLSGHVNGRVFINHSPFLTSKIVAETSSQPNESKATWDLDYRGSDFCGQLKFGNMGIVALSYLQSVTPNLSLGGEGFYQGATGFSAITAAGRYVTHDGVATCTIASFGPLVASYCHRVNPRVTLATEFFWDLRSRDSLVTIGYKFDLRQATVTGQIDTNGRVAALLEEKINPGLSFLLSGEIDHSRQEYKFGFGVTIGQ", "soluble on expression in E. coli": "soluble"},
      {"sequence": "MGGSALNQGVLEGDDAPGQSLYERLSQRMLDISGDRGVLKDVIREGAGDLVAPDASVLVKYYGYLEHLDRPFDSNYFRKTPRLMKLGEDITLWGMELGLLSMQRGELARCFVLGKLLDSQGPSLHLYLRAS", "soluble on expression in E. coli": "not soluble"},
      {"sequence": "MGGSHHHHHHGMASMTGGQQMGRDLYDDDDKDRWGSELEISMEQVSASIGNFTVDLFNKLNETNRDKNIFFSPWSISSALALTYLAAKGSTAREMAEVLHFEQAENIHSGFKELLTAFNKPRNNYSLRSANRIYVEKTYALLPTYLQLSKKYYKAEPQKVNFKTAPEQSRKEINTWVEKQTESKIKNLLSSDDVKATTRLILVNAIYFKAEWEVKFQAEKTSIQPFRLSKNKSKPVKMMYMRDTFPVLIMEKMNFKMIELPYVKRELSMFILLPDDIKDGTTGLEQLERELTYERLSEWADSKMMTETLVDLHLPKFSLEDRIDLRDTLRNMGMTTAFTTNADFRGMTDKKDLAISKVIHQSFVAVDEKGTEAAAATAVIISFTTSVINHVLKFKVDHPFHFFIRHNKSKTILFFGRFCCPVE", "soluble on expression in E. coli": "soluble"},
      {"sequence": "MGGSHHHHHHGMASMTGGQQMGRTLYDDDDKDRWGSRKIVVVGGVAGGASVAARLRRLSEEDEIIMVERGEYISFANCGLPYYIGGVITERQKLLVQTVERMSKRFNLDIRVLSEVVKINKEEKTITIKNVTTNETYNEAYDVLILSPGAKPIVPSIPGIEEAKALFTLRNVPDTDRIKAYIDEKKPRHATVIGGGFIGVEMVENLRERGIEVTLVEMANQVMPPIDYEMAAYVHEHMKNHDVELVFEDGVDALEENGAVVRLKSGSVIQTDMLILAIGVQPESSLAKGAGLALGVRGTIKVNEKFQTSDPHIYAIGDAIEVKDFVTETETMIPLAWPANRQGRMLADIIHGHTDSLYKGTLGTSVAKVFDLTVATTGLNEKILKRLNIPYEVVHVQANSHAGYYPNATPVLIKLIFNKDSGKIYGAQTLGRDGVDKRMDVIATAIKANLTVLDLPDLELSYAPPYSSAKDPVNMVGYAASNIVDGFVDTVQWHEIDRIVENGGYLIDVREPNELKQGMIKGSINIPLDELRDRLEEVPVDKDIYITCQLGMRGYVAARMLMEKGYKVKNVDGGFKLYGTVLPERIVY", "soluble on expression in E. coli": "soluble"},
      {"sequence": "MGHHHHHHEFMLKNDDFVIAKNQLGNIVPNSVGVIRAVNGKSAMVLFIGLNELKRVDFSELEAIDIYRTGKGYDKKICNICHILKNTDGFEINQTDAKGRKTTRPSCRECRKNIDGVKLSSTEKKKMDEIAPPKGSVFTCPICEKRSIVGVTANLVHDHNHDTGWGREWICDSCNTGLGRFKDNPKFLEKVIEYLKKYEK", "soluble on expression in E. coli": "soluble"},
      {"sequence": "MGHHHHHHENLYFQSHLYFQSHDCGSAVTERPKAAPIPTVNPEGKLKKEPNMFSPTLMLPGLGTLSSSQMYPACSQMPTQPAQLGPGKQDTLHSCWQQLYSPSPSASSLLSLHSHSSFTAEVPQPGAQGSSSLPAYNPLNWPDEKNSSFYRNFGNTHGMGAALVSAAGMQSVSSSSIVQGTHQASATTASIMTMPRTPGEVPFLRQQVGYRS", "soluble on expression in E. coli": "not soluble"},
      {"sequence": "MGHHHHHHENLYFQSHLYFQSHINEQEREIEKLKRQMAEYGAIIKSLQFRQNSLEDTFIPDLTPKVEPSVNPTGCLLGSNAVHLMRDIKKECDYLGIPDPVPATKPTTQAQDDSQKKAKRSCFGRLFTGPFRRGTSAMKTADEYEKDDRLEELYAQLERDPDP", "soluble on expression in E. coli": "not soluble"},
      {"sequence": "MGHHHHHHGSRKGAELGILIKNADALEVAEKVTAVIFDKTGTLTKGKPEVTDLVPLNGDERELLRLAAIAERRSEHPIAEAIVKKALEHGIELGEPEKVEVIAGEGVVADGILVGNKRLMEDFGVAVSNEVELALEKLEREAKTAVIVARNGRVEGIIAVSDTLKESAKPAVQELKRMGIKVGMITGDNWRSAEAISRELNLDLVIAEVLPHQKSEEVKKLQAKEVVAFVGDGINDAPALAQADLGIAVGSGSDVAVESGDIVLIRDDLRDVVAAIQLSRKTMSKIK", "soluble on expression in E. coli": "soluble"},
      {"sequence": "MGHHHHHHSHDDDDLNTIEFKILAYYTRHHVFKSTPALFSPKLLRTRSLSQRGLGNCSANESWTEVSWPCRNSQSSEKAINLGKKKSSWKAFFGVVEKEDSQSTPAKVSAQGQRTLEYQDSHSQQWSRCLSNVEQCLEHEAVDPKVISIANRVAEIVYSWPPPQATQAGGFKSKEIFVTEGLSFQLQGHVPVASSSKKDEEEQILAKIVELLKYSGDQLERKLKKDKALMGHFQDGLSYSVFKTITDQVLMGVDPRGESEVKAQGFKAALVIDVTAKLTAIDNHPMNRVLGFGTKYLKENFSPWIQQHGGWEKILGISHEEVD", "soluble on expression in E. coli": "not soluble"},
      {"sequence": "MGHHHHHHSHGNLVTELIYVHSKLLIADDNTVIIGSANINDRSMLGKRDSEMAVIVQDTETVPSVMDGKEYQAGRFARGLRLQCFRVVLGYLDDPSEDIQDPVSDKFFKEVWVSTAARNATIYDKVFRCLPNDEVHNLIQLRDFINKPVLAKEDPIRAEEELKKIRGFLVQFPFYFLSEESLLPSVGTKEAIVPMEVWT", "soluble on expression in E. coli": "not soluble"},
      {"sequence": "MGHHHHHHSHGTRMDHRSDLVFLADLRPEEIRYRLQHYFKFLFVREPLERLLSAYRNKFGEIREYQQRYGAEIVRRYRAGAGPSPAGDDVTFPEFLRYLVDEDPERMNEHWMPVYHLCQPCAVHYDFVGSYERLEADANQVLEWVRAPPHVRFPARQAWYRPASPESLHYHLCSAPRALLQDVLPKYILDFSLFAYPLPNVTKEACQQ", "soluble on expression in E. coli": "not soluble"},
      {"sequence": "MGHHHHHHSHLFQGDDAKEKIAVVDETNELYPVFSKQLKAVDTDGDLDVKLSKQSEDEVTKQVKDESLDGMLIIKRDEKGTISGTYKALTISDESTYQTLQQALTQTKTAVGTAELGVSQETISSLYAPVTVGQKALKEGAKSEEELGQT", "soluble on expression in E. coli": "not soluble"},
      {"sequence": "MGHHHHHHSHLQHETQELASKRVDIQNKRFYLDVKQNAKGRFLKIAEVGAGGNKSRLTLSMSVAVEFRDYLGDFIEHYAQLGPSQPPDLAQAQDEPRRALKSEFLVRENRKYYMDLKENQRGRFLRIRQTVNRGPGLGSTQGQTIALPAQGLIEFRDALAKLIDDYGVEEEPAELPEGTSLTVDNKRFFFDVGSNKYGVFMRVSEVKPTYRNSITVPYKVWAKFGHTFCKYSEEMKKIQEK", "soluble on expression in E. coli": "soluble"},
      {"sequence": "MGHHHHHHSHMAKAITGVVCYACRIASTLLLYQELMRKGIRWLIELIKDDYNETVHKKTEVVITLDFCIRNIEKTVKVYEKLMKINLEAAELGEISDIHTKLLRLSSSQGTIETSLQDIDSRLSPGGSLADAWAHQEGTHPKDRNVEKLQVLLNCMTEIYYQFKKDKAERRLAYNEEQIHKFDKQKLYYHATKAMTHFTDECVKKYEAFLNKSEEWIRKMLHLRKQLLSLTNQCFDIEEEVSKYQEYTNELQETLPQKMFTASSGIKHTMTPIYPSSNTLVEMTLGMKKLKEEMEGVVKELAENNHILERFGSLTMDGGLRNVDCL", "soluble on expression in E. coli": "not soluble"},
      {"sequence": "MGHHHHHHSHMAQKPGTMAQMRNGTSGGDKRQYETEVIILNQCRKLNGQIFIQRDYSKGLDVQFEAEYPARLTEKVPRDVWENTIVRINRIFADAEAITPQTIFETVLGCFTCYASYAITKSTYRRKLDELQEFLNRENREIYHHVGFHIRNPMERGLRVLEISLLSRQGETPRDDVDSPGGAIRTI", "soluble on expression in E. coli": "not soluble"},
      {"sequence": "MGHHHHHHSHMAQSINITELNLPQLEMLKNQLDQEVEFLSTSIAQLKVVQTKYVEAKDCLNVLNKSNEGKELLVPLTSSMYVPGKLHDVEHVLIDVGTGYYVEKTAEDAKDFFKRKIDFLTKQMEKIQPALQEKHAMKQAVMEMMSQKIQQLTALGAAQATAKA", "soluble on expression in E. coli": "not soluble"},
      {"sequence": "MGHHHHHHSHMDNAERPRARRRRKPRVLFSQAQVYELERRFKQQRYLSAPERDQLASVLKLTSTQVKIWFQNRRYKCKRQRQDQTLELVGLPPPPPPPARRIAVPVLVRDGKPCLGD", "soluble on expression in E. coli": "soluble"}
    ]}
  ]
}
